The values that follow come from PMC7438487, “Structural studies reveal flexible roof of active site responsible for ω-transaminase CrmG overcoming by-product inhibition” (Communications Biology, 2020).

Substrate in data set [1]: N[C@@H](CCC(=O)O)C(=O)O
The experiment in a line: transamination kinetics with CRM M as acceptor; crystal structure of external aldimine. The conditions noted are these: 0.2 mM CRM M, 80 μM PLP, 4 μM CrmG, 200 mM Tris pH 7.5, 30 °C, covalent PLP-Glu external aldimine in crystal. Format: biochemical, Actinoalloteichus sp. WH1-2216-6.

Substrate in data set [2]: NC(=O)CC[C@H](N)C(=O)O
The experiment in a line: transamination kinetics with CRM M as acceptor; crystal structure. The conditions noted are these: 0.2 mM CRM M, 80 μM PLP, 4 μM CrmG, 200 mM Tris pH 7.5, 30 °C, no external aldimine in crystal. Format: biochemical, Actinoalloteichus sp. WH1-2216-6.

Substrate in the data set “purified protein”: C[C@H](N)C(=O)O
The experiment in a line: purified protein. The note with it: 0.2 mM CRM M, 80 μM PLP, 4 μM CrmG, 200 mM Tris pH 7.5, 30 °C, covalent PLP-Ala external aldimine in crystal.

B1: CrmG (Actinoalloteichus sp. WH1-2216-6) (protein)
chain: MTHPSGEPVYADAVLNGWLTSMGLGVEYVRAEGNTVYYLDDEGREVPVLDHACGFGSLIFGHNHPEIIAHAKAALDAGTVVHAQLSRQPRANQISRILNDIMRRETGRDDRYNAIFANSGAEANEICMKHAELERQERITALFAEIDAELDTAREALTTGTATLDTASLPLVGGGAGDVDGVIADIHRHNDERRAERPLFLTLDGSFHGKLVGSIQLTQNEPWRTPFTALSSPARFLPADEPELIGKIVEDERRSVLTLSLDKDTVRVVERDFPVVAAIFVEPVRGGSGMKTVTPELAEELHRLRDTLGCPLVVDEVQTGIGRTGAFFGSALLGIRGDYYTLAKAIGGGIVKNSVALIRQDRFLPAMEVIHSSTFAKDGLSASIALKVLEMVEADGGRVYQRVRERGQRLEAMLESVRADHSDVVSAVWGTGLMLALELRDQSNATSQAIREKAAHGFLGYVLAGFLLREHHIRVLPAGPRSGFLRFSPSLYITDEEIDRTETALRSLFTALRDQDGDRLVLS
notes: pET28a, N-terminal His-tag and 14 additional vector residues; expressed in E. coli BL21; dimer (114 kDa by DLS)
The Km is the substrate concentration at which the rate is half of its maximum. For the protein B1, the Michaelis-Menten constant (Km) in data set [1] was 80.02 µM; in data set [2] it was 182.70 µM; in “purified protein” it was 405.10 µM.
